According to patent US7419813B2, “Fructosyl peptide oxidase” (Kikkoman Corporation, priority 2001, dated 2008):

B1: Coniochaeta sp. NISL 9330: fructosyl peptide oxidase produced by Coniochaeta sp. NISL 9330 (FERM BP-7798) with less action on ε-fructosyl lysine; amino acid sequence SEQ ID NO: 1 (protein, listed as Coniochaeta sp.)
chain: MTSNRADTRVIVVGGGGTIGSSTALHLVRSGYAPANITVLDTFEIPSAQSAGHDLNKIMGIRLRNKVDLQMSLEARQMWKEDELFQPFFHNTGRMDCEHTPEGIEDLKKQYQALHDAGAGLEKTHAWLDNEDEILSKMPLLQRDQIQGWKAIWSQDGGWLAAAKAINAIGQFLKERGVKFGFGGAGSFKQPLFDDEGTTCIGVETADGTKYYADKVVLAAGAWSPTLVDLEDQCCSKAWVYAHIQLTPEEAAEYKGVPVVYNGEFGFFFEPNEFGVIKVCDEFPGFSRFKEHQPYGAPSPKHISVPRSHAKHPTDTYPDASEVSIKKAIATFLPRFQDKELFNRALCWCTDTADAALLMCEHPKWKNFILATGDSGHSFKILPNVGKHVVELIEGRLPEEMAYQWRWRPGGDALKSRRAAPPKDLADMPGWKHDPKL
B2: Eupenicillium terrenum ATCC 18547: fructosyl peptide oxidase produced by Eupenicillium terrenum ATCC 18547 with less action on ε-fructosyl lysine; amino acid sequence SEQ ID NO: 3 (protein, listed as Eupenicillium terrenum)
chain: MAHSRASTKVVVVGGGGTIGSSTALHLIRSGYTPSNITVLDVYKTPSLQSAGHDLNKIMGIRLRNGPDLQLSLESLDMWQNDELFKPFFHQVGMIDCSSSKEGIENLRRKYQTLLDAGIGLEKTNVWLESEDEILAKAPNFTREQVKGWKGLFCTDGGWLAAAKAINAIGIFLQDKGVKFGFGGAGTFQQPLFAADGKTCIGLETTDGTKYFADKVVLAAGAWSPTLVDLEDQCVSKAWVFAHIQLTPKEADAYKNVPVVYDGEYGFFFEPNEYGVIKVCDEFPGFSRFKLHQPYGAASPKMISVPRSHAKHPTDTYPDASEVTIRKAIARFLPEFKDKELFNRTMCWCTDTADANLLICEHPKWKNFILATGDSGHSFKLLPNIGKHVVELLEGSLSQEMAGAWRWRPGGDALRSRRGAPAKDLAEMPGWKHDAHL

How the values were obtained:
[1] = Enzyme activity assay, fructosyl glycine substrate; type: biochemical; conditions: for Substrate specificity (% relative activity) FG: crude enzyme sample; for relative activity for fructosyl glycine: purified oxidase, compared to 100% activity for fructosyl valyl histidine
Source text: Enzyme activities of the oxidase of the invention and the oxidase of the invention that have less action on ε-fructosyl lysine (hereinafter, the term “the oxidases of the invention” may comprise both the oxidase of the invention and the oxidase of the invention that have less action on ε-fructosyl lysine) may principally be determined by determining the amount of α-ketoaldehyde, peptide, hydrogen peroxide or the like which are produced through enzyme reaction or by determining the amount of oxygen consumed by the enzyme reaction. Hereinafter, a method for determining the amount of hydrogen peroxide will be described as one example. Unless otherwise noted, fructosyl valyl histidine is used as a substrate for determining the activities of the oxidases of the invention. Titer of the enzyme is defined such that an amount of enzyme for producing 1 μmol hydrogen peroxide per minute is 1U as determined using a fructosyl valyl histidine substrate. 624 mg of fructosyl valyl histidine is dissolved in ion exchange water to a constant volume of 10 ml. Alternatively, fructosyl glycine or ε-fructosyl lysine of 357 mg or 462 mg, respectively, may be dissolved in ion exchange water to a constant volume of 10 ml to be used as a substrate. Fructosyl valine histidine was prepared as described in Japanese Patent Application Laid-Open (kohyo) No. 2001-95598. Fructosyl glycine and ε-fructosyl lysine were prepared according to a method of Horiuchi et al. (Agric. Biol. Chem., 53, 103-110, 1989; Agric. Biol. Chem., 55, 333-338, 1991). 2.7 ml of Reagent 1, 100 μl of Reagent 2 and 100 μl of enzyme solution are mixed and pre-heated at 30° C. for 5 minutes. Then, 100 μl of Reagent 3 is added and thoroughly mixed to determine absorbance at 510 nm using a spectrophotometer (U-[…], Hitachi, Ltd.). Measurement values indicate changes in the absorbance per minute at 510 nm after 1 to 3 minutes. A control solution was prepared in the same manner as described above except 100 μl ion exchange water was added instead of 100 μl Reagent 3. A standard solution of hydrogen peroxide and ion exchange water were used instead of Reagent 3 and the enzyme solution, respectively, to prepare a graph showing relationship with respect to the level of color. Referring to this graph, micromole of hydrogen peroxide produced per minute at 30° C. is calculated and used as the unit for expressing the activity of the enzyme solution. The presence of action on ε-fructosyl lysine can be determined in the same manner by using Reagent 3 (substrate solution) containing ε-fructosyl lysine substrate instead of fructosyl valyl histidine substrate.

[2] = Optimum temperature range of the enzyme reaction; type: biochemical; conditions: purified oxidase
Method: For example, a reaction solution having the same composition as that of a reaction solution used for the activity assay described later is used to determine activities of the enzyme at various temperatures, thereby determining a suitable temperature range for action. The oxidases of the invention may, for example, have a suitable temperature range of 20-50° C., preferably 25-45° C. For example, a reaction solution having the same composition as that of a reaction solution for the activity assay described later is used to determine activities of the enzyme at various temperatures, thereby determining a suitable temperature range. The oxidases of the invention that have less action on ε-fructosyl lysine may, for example, have a suitable temperature range of 20-50° C., preferably 25-40° C. The activity of the inventive oxidase was assayed at different temperatures using reactions which consisted of the same compositions as those used in the above-described activity assay.

[3] = type: physicochemical; conditions: for pH of maximum remaining activity: 10 min; for stable pH range: purified oxidase, 30° C. for 10 minutes, remaining activities of 70% (Eupenicillium 60%) or higher
Method: For example, 200 mM acetic acid buffer (pH 3.0-6.0), 200 mM MES-NaOH (pH 6.0-7.0), 200 mM Tris buffer (pH 6.8-9.0), 200 mM potassium phosphate buffer (pH 6.5-8.0) and 200 mM glycine buffer (pH 8.0-12.0) are used as buffers to perform enzyme reactions at the indicated pH at 30° C. for 10 minutes, thereby determining the remaining activities of the oxidases of the invention. For example, the oxidases of the invention may have a stable pH at 5.0-10.0, preferably at 6.0-9.0. For example, 200 mM acetic acid buffer (pH 3.0-6.0), 200 mM MES-NaOH (pH 6.0-7.0), 200 mM Tris buffer (pH 6.8-9.0), 200 mM potassium phosphate buffer (pH 6.5-8.0) and 200 mM glycine buffer (pH 8.0-12.0) are used as buffers to perform enzyme reactions at the indicated pH at 30° C. for 10 minutes, thereby determining the remaining activities of the oxidases of the invention. For example, the oxidases of the invention that have less action on ε-fructosyl lysine may have a stable pH range at 5.0-10.0, preferably at 6.0-9.0. The inventive oxidase was treated with 200 mM acetic acid buffer (pH 3.0-6.0), 200 mM MES-NaOH (pH 6.0-7.0), 200 mM Tris buffer (pH 6.8-9.0), 200 mM potassium phosphate buffer (pH 6.5-8.0) or 200 mM glycine buffer (pH 8.0-12.0) at the indicated pH values at 30° C. for 10 minutes, and its remaining activity was determined. […] The inventive oxidase was treated with 200 mM acetic acid buffer (pH 3.0-6.0), 200 mM MES-NaOH (pH 6.0-7.0), 200 mM Tris buffer (pH 7.0-8.5), 200 mM potassium phosphate buffer (pH 6.0-8.0) or 200 mM glycine buffer (pH 8.0-12.0) at the indicated pH values at 30° C. for 10 minutes, and the remaining activity thereof was monitored.

[4] = Reaction assay in 96-well plate with fructosyl glycine (control substrate); type: biochemical; conditions: purified enzyme; control substrate set to 100%
Method: Fructosyl glycine (4.5 mg) was dissolved in 1 ml of water.
Developer solution consisted of the following materials:
• (a) Enzyme purified from Achaetomiella virescens ATCC 32393 • (b) Enzyme purified from Eupenicillium terrenum ATCC 18547 • (c) Enzyme purified from Coniochaeta sp. NISL 9330 (FERM BP-7798) • (d) 20 mM phosphate buffer, pH 8.0 (2) Reaction Assay
Reaction substrate (D: a, b) (20 μl), developer solution (E) (20 μl) and the inventive oxidase (F: a-d) (10 μl) were mixed in 96-well assay plates for reaction. Each plate was monitored at 510 nm using a plate reader (Immuno Mini NJ-2300, available from Nalge Nunc International K. K.) for 70 minutes. The results are shown as % relative activity when compared to 100% activity for fructosyl glycine (Table 4). […] It was confirmed that all of the inventive oxidases were reactive with the protease-digested products of α-glycated hexapeptide.

[5] = relative to activity for ε-fructosyl lysine (100%)

Molecule	Substrate specificity (% relative activity) FG [1, 5] [%]	relative activity for fructosyl glycine [1] [%]	temperature of maximum activity (100%) [2]	pH of maximum remaining activity [3] [pH]	stable pH range [3]	% relative activity on fructosyl glycine [4] [%]	Substrate specificity (% relative activity) FG ([1]; relative to activity for fructosyl valyl histidine (100%)) [%]	optimum temperature range ([2]; relative activities of 50% or 60% or higher)
B1	65	39	around 40 °C	~7.0	5.0-9.0 pH	100		
B2	1862	182	around 35 °C	8.0	6.0-9.0 pH	100	182	25-40 °C
